# B1: NLV2 TCR alpha chain (CDR3α only) (parent)
# chain: AGPMKTSYDKVI
# partner: NLVGMVATV
# Variants of: B1
# Experiment: T-Switch: Jurkat TCRβ−/− cells expressing a CDR3 saturation-mutagenesis library, stained with two peptide-HLA-A*02:01 tetramers (original and novel peptide) plus anti-CD3, FACS-sorted into four gates, gDNA sequenced
# Settings: with HLA-A*02:01 with peptide … (NLV 2-2, the original bait), tetramers 1 µg/mL, 30 min on ice, DP and SW gates expanded about 10 days between rounds ('two to three rounds of selection' in the Methods), gate SP: higher = more of the variant in the gate that binds the original peptide and not the novel one = retained original binding. Fold enrichment of the CDR3 variant in one FACS gate of a two-tetra, unresolved parent, parent is a CDR3 fragment, scale: fold enrichment, numbering: sequential-on-construct, sequence …
row,Variant,enrichment
1,[…] (CDR3 as printed); I12Y derived by comparing it with the table's wild-type CDR3 AGPMKTSYDKVI,0
2,[…] (CDR3 as printed); S7D derived by comparing it with the table's wild-type CDR3 AGPMKTSYDKVI,0
3,[…] (CDR3 as printed); D9W derived by comparing it with the table's wild-type CDR3 AGPMKTSYDKVI,0
4,[…] (CDR3 as printed); D9F derived by comparing it with the table's wild-type CDR3 AGPMKTSYDKVI,0
5,[…] (CDR3 as printed); M4C derived by comparing it with the table's wild-type CDR3 AGPMKTSYDKVI,0
6,[…] (CDR3 as printed); K5I derived by comparing it with the table's wild-type CDR3 AGPMKTSYDKVI,3.95
7,[…] (CDR3 as printed); S7K derived by comparing it with the table's wild-type CDR3 AGPMKTSYDKVI,0
8,[…] (CDR3 as printed); M4Q derived by comparing it with the table's wild-type CDR3 AGPMKTSYDKVI,5.77
9,[…] (CDR3 as printed); M4K derived by comparing it with the table's wild-type CDR3 AGPMKTSYDKVI,0.788
10,[…] (CDR3 as printed); K10S derived by comparing it with the table's wild-type CDR3 AGPMKTSYDKVI,0
11,[…] (CDR3 as printed); K5M derived by comparing it with the table's wild-type CDR3 AGPMKTSYDKVI,4.77
12,[…] (CDR3 as printed); G2C derived by comparing it with the table's wild-type CDR3 AGPMKTSYDKVI,0
13,[…] (CDR3 as printed); K10W derived by comparing it with the table's wild-type CDR3 AGPMKTSYDKVI,0
14,[…] (CDR3 as printed); D9M derived by comparing it with the table's wild-type CDR3 AGPMKTSYDKVI,0.433
15,[…] (CDR3 as printed); T6C derived by comparing it with the table's wild-type CDR3 AGPMKTSYDKVI,0
16,[…] (CDR3 as printed); T6K derived by comparing it with the table's wild-type CDR3 AGPMKTSYDKVI,0
17,[…] (CDR3 as printed); D9E derived by comparing it with the table's wild-type CDR3 AGPMKTSYDKVI,0
18,[…] (CDR3 as printed); P3M derived by comparing it with the table's wild-type CDR3 AGPMKTSYDKVI,0
19,[…] (CDR3 as printed); G2E derived by comparing it with the table's wild-type CDR3 AGPMKTSYDKVI,0.387
20,[…] (CDR3 as printed); P3R derived by comparing it with the table's wild-type CDR3 AGPMKTSYDKVI,0
21,[…] (CDR3 as printed); D9C derived by comparing it with the table's wild-type CDR3 AGPMKTSYDKVI,0

row,Variant,enrichment
1,[…] (CDR3 as printed); I12H derived by comparing it with the table's wild-type CDR3 AGPMKTSYDKVI,0
2,[…] (CDR3 as printed); S7I derived by comparing it with the table's wild-type CDR3 AGPMKTSYDKVI,0
3,[…] (CDR3 as printed); K10D derived by comparing it with the table's wild-type CDR3 AGPMKTSYDKVI,0
4,[…] (CDR3 as printed); K5D derived by comparing it with the table's wild-type CDR3 AGPMKTSYDKVI,37.8
5,[…] (CDR3 as printed); P3W derived by comparing it with the table's wild-type CDR3 AGPMKTSYDKVI,0
6,[…] (CDR3 as printed); I12D derived by comparing it with the table's wild-type CDR3 AGPMKTSYDKVI,0
7,[…] (CDR3 as printed); G2N derived by comparing it with the table's wild-type CDR3 AGPMKTSYDKVI,0
8,[…] (CDR3 as printed); D9H derived by comparing it with the table's wild-type CDR3 AGPMKTSYDKVI,0.283
9,[…] (CDR3 as printed); K5Q derived by comparing it with the table's wild-type CDR3 AGPMKTSYDKVI,7.86
10,[…] (CDR3 as printed); S7Q derived by comparing it with the table's wild-type CDR3 AGPMKTSYDKVI,0
11,[…] (CDR3 as printed); D9P derived by comparing it with the table's wild-type CDR3 AGPMKTSYDKVI,0
12,[…] (CDR3 as printed); S7N derived by comparing it with the table's wild-type CDR3 AGPMKTSYDKVI,0
13,[…] (CDR3 as printed); S7F derived by comparing it with the table's wild-type CDR3 AGPMKTSYDKVI,0
14,[…] (CDR3 as printed); K10H derived by comparing it with the table's wild-type CDR3 AGPMKTSYDKVI,0.422
15,[…] (CDR3 as printed); M4L derived by comparing it with the table's wild-type CDR3 AGPMKTSYDKVI,0
16,[…] (CDR3 as printed); K5E derived by comparing it with the table's wild-type CDR3 AGPMKTSYDKVI,21.3
17,[…] (CDR3 as printed); A1R derived by comparing it with the table's wild-type CDR3 AGPMKTSYDKVI,0
18,[…] (CDR3 as printed); G2Y derived by comparing it with the table's wild-type CDR3 AGPMKTSYDKVI,0
19,[…] (CDR3 as printed); I12T derived by comparing it with the table's wild-type CDR3 AGPMKTSYDKVI,0
20,[…] (CDR3 as printed); K10R derived by comparing it with the table's wild-type CDR3 AGPMKTSYDKVI,0
21,[…] (CDR3 as printed); S7V derived by comparing it with the table's wild-type CDR3 AGPMKTSYDKVI,0

row,Variant,enrichment
1,[…] (CDR3 as printed); I12E derived by comparing it with the table's wild-type CDR3 AGPMKTSYDKVI,0.34
2,[…] (CDR3 as printed); T6H derived by comparing it with the table's wild-type CDR3 AGPMKTSYDKVI,0
3,[…] (CDR3 as printed); T6A derived by comparing it with the table's wild-type CDR3 AGPMKTSYDKVI,0
4,[…] (CDR3 as printed); G2I derived by comparing it with the table's wild-type CDR3 AGPMKTSYDKVI,0
5,[…] (CDR3 as printed); K5G derived by comparing it with the table's wild-type CDR3 AGPMKTSYDKVI,12.9
6,[…] (CDR3 as printed); P3K derived by comparing it with the table's wild-type CDR3 AGPMKTSYDKVI,0
7,[…] (CDR3 as printed); I12C derived by comparing it with the table's wild-type CDR3 AGPMKTSYDKVI,0
8,[…] (CDR3 as printed); I12S derived by comparing it with the table's wild-type CDR3 AGPMKTSYDKVI,0
9,[…] (CDR3 as printed); K10G derived by comparing it with the table's wild-type CDR3 AGPMKTSYDKVI,0
10,[…] (CDR3 as printed); M4R derived by comparing it with the table's wild-type CDR3 AGPMKTSYDKVI,0
11,[…] (CDR3 as printed); D9R derived by comparing it with the table's wild-type CDR3 AGPMKTSYDKVI,0
12,[…] (CDR3 as printed); K5W derived by comparing it with the table's wild-type CDR3 AGPMKTSYDKVI,5.12
13,[…] (CDR3 as printed); M4P derived by comparing it with the table's wild-type CDR3 AGPMKTSYDKVI,0
14,[…] (CDR3 as printed); M4V derived by comparing it with the table's wild-type CDR3 AGPMKTSYDKVI,18.1
15,[…] (CDR3 as printed); G2K derived by comparing it with the table's wild-type CDR3 AGPMKTSYDKVI,0
16,[…] (CDR3 as printed); S7H derived by comparing it with the table's wild-type CDR3 AGPMKTSYDKVI,0
17,[…] (CDR3 as printed); K10T derived by comparing it with the table's wild-type CDR3 AGPMKTSYDKVI,0
18,[…] (CDR3 as printed); M4F derived by comparing it with the table's wild-type CDR3 AGPMKTSYDKVI,0
19,[…] (CDR3 as printed); P3T derived by comparing it with the table's wild-type CDR3 AGPMKTSYDKVI,0
20,[…] (CDR3 as printed); T6G derived by comparing it with the table's wild-type CDR3 AGPMKTSYDKVI,0
21,[…] (CDR3 as printed); K5F derived by comparing it with the table's wild-type CDR3 AGPMKTSYDKVI,0

row,Variant,enrichment
1,[…] (CDR3 as printed); P3E derived by comparing it with the table's wild-type CDR3 AGPMKTSYDKVI,0.526
2,[…] (CDR3 as printed); I12K derived by comparing it with the table's wild-type CDR3 AGPMKTSYDKVI,8.2
3,[…] (CDR3 as printed); T6E derived by comparing it with the table's wild-type CDR3 AGPMKTSYDKVI,0
4,[…] (CDR3 as printed); P3A derived by comparing it with the table's wild-type CDR3 AGPMKTSYDKVI,0
5,[…] (CDR3 as printed); S7P derived by comparing it with the table's wild-type CDR3 AGPMKTSYDKVI,0
6,[…] (CDR3 as printed); T6F derived by comparing it with the table's wild-type CDR3 AGPMKTSYDKVI,0
7,[…] (CDR3 as printed); P3N derived by comparing it with the table's wild-type CDR3 AGPMKTSYDKVI,0.173
8,[…] (CDR3 as printed); I12P derived by comparing it with the table's wild-type CDR3 AGPMKTSYDKVI,0
9,[…] (CDR3 as printed); K10F derived by comparing it with the table's wild-type CDR3 AGPMKTSYDKVI,0
10,[…] (CDR3 as printed); K10E derived by comparing it with the table's wild-type CDR3 AGPMKTSYDKVI,0
11,[…] (CDR3 as printed); S7M derived by comparing it with the table's wild-type CDR3 AGPMKTSYDKVI,0
12,[…] (CDR3 as printed); P3V derived by comparing it with the table's wild-type CDR3 AGPMKTSYDKVI,0.124
13,[…] (CDR3 as printed); M4A derived by comparing it with the table's wild-type CDR3 AGPMKTSYDKVI,8.93
14,[…] (CDR3 as printed); K10Y derived by comparing it with the table's wild-type CDR3 AGPMKTSYDKVI,4.15
15,[…] (CDR3 as printed); S7A derived by comparing it with the table's wild-type CDR3 AGPMKTSYDKVI,3.32
16,[…] (CDR3 as printed); G2V derived by comparing it with the table's wild-type CDR3 AGPMKTSYDKVI,0
17,[…] (CDR3 as printed); T6D derived by comparing it with the table's wild-type CDR3 AGPMKTSYDKVI,0
18,[…] (CDR3 as printed); I12N derived by comparing it with the table's wild-type CDR3 AGPMKTSYDKVI,0.107
19,[…] (CDR3 as printed); A1T derived by comparing it with the table's wild-type CDR3 AGPMKTSYDKVI,0.262
20,[…] (CDR3 as printed); K5N derived by comparing it with the table's wild-type CDR3 AGPMKTSYDKVI,0
21,[…] (CDR3 as printed); M4Y derived by comparing it with the table's wild-type CDR3 AGPMKTSYDKVI,0.292

# — article PMC13397619
